# In patent US10392620B2, “Cytochrome B (CYTB) nucleic acid molecules that control pathogens” (Dow AgroSciences LLC, priority 2016, dated 2019):
# What was measured:
# [1] = tested on: Zymoseptoria tritici (SEPTTR) US-184; experiment: CytB dsRNA foliar application bioassay on wheat seedlings, SEPTTR US-184; format: in vivo; conditions: compared to the non-treated control; strain not given
# Method: RNAi (dsRNA) fungicidal solutions were prepared in TE buffer (pH 8.0), which were then mixed with 9 volumes of phosphate buffer (pH 7.5) containing 0.1% Triton X-100. The fungicidal solutions were applied to wheat seedlings using an automated booth sprayer to run-off. All sprayed plants were allowed to air dry prior to further handling.
# The following served as controls: 1% silwet in phosphate buffer control, disease pressure control (untreated), and clean plant control (negative control).
# (§1) These plants were inoculated with an aqueous spore suspension of Zymoseptoria tritici either prior to or after fungicidal treatments. After inoculation the plants were kept in 100% relative humidity to allow spores to germinate and infect the leaves. The plants were then transferred to a greenhouse until disease developed.
# [2] = tested on: Zymoseptoria tritici (SEPTTR-184); experiment: Efficacy of target gene fragments (MgCytB dsRNA tiles) on wheat plants, SEPTTR-184; format: in vivo; parameters: Average of 2 trials SEPTTR-184 3DC / Average of 2 trials SEPTTR-184 1DP: scale not given here; conditions: for ED50 SEPTTR-184 1DP / ED80 SEPTTR-184 1DP / Disease Control All Rates Average SEPTTR-184 1DP / Sum of Disease Control SEPTTR-184 1DP / Average of 2 trials SEPTTR-184 1DP: 1DP (preventative); for Disease Control All Rates Average SEPTTR-184 1DP / Disease Control All Rates Average SEPTTR-184 3DC: average of 200, 50, 12.5, 3.125 ppm; for Sum of Disease Control SEPTTR-184 1DP / Sum of Disease Control SEPTTR-184 3DC: sum over 200, 50, 12.5, 3.125 ppm; for ED50 SEPTTR-184 3DC / ED80 SEPTTR-184 3DC / Disease Control All Rates Average SEPTTR-184 3DC / Sum of Disease Control SEPTTR-184 3DC / Average of 2 trials SEPTTR-184 3DC: 3DC (curative)
# Method: The 200 ppm rate for each treatment was prepared by adding the calculated volume of the corresponding dsRNA solution in TE buffer. Lower rates were prepared as 4-fold dilutions (50 ppm, 12.5 ppm, and 3.12 ppm). A non-target dsRNA control (YFP), a TE/phosphate buffer control, disease pressure control, and clean plant control were included.
# as §1
Molecule,control of Septoria leaf blotch on wheat seedlings [1],ED50 SEPTTR-184 1DP [2] [ppm],ED80 SEPTTR-184 1DP [2] [ppm],Disease Control All Rates Average SEPTTR-184 1DP [2] [%],Sum of Disease Control SEPTTR-184 1DP [2] [%],ED50 SEPTTR-184 3DC [2] [ppm],ED80 SEPTTR-184 3DC [2] [ppm],Disease Control All Rates Average SEPTTR-184 3DC [2] [%],Sum of Disease Control SEPTTR-184 3DC [2] [%],Average of 2 trials SEPTTR-184 1DP ([2]; 3.125 ppm),Average of 2 trials SEPTTR-184 3DC ([2]; 3.125 ppm),Average of 2 trials SEPTTR-184 1DP ([2]; 12.5 ppm),Average of 2 trials SEPTTR-184 3DC ([2]; 12.5 ppm),Average of 2 trials SEPTTR-184 1DP ([2]; 50 ppm),Average of 2 trials SEPTTR-184 3DC ([2]; 50 ppm),Average of 2 trials SEPTTR-184 1DP ([2]; 200 ppm),Average of 2 trials SEPTTR-184 3DC ([2]; 200 ppm)
"MgCytB-T1: 267 bp dsRNA of Zymoseptoria CytB region 1, location 364-630 (SEQ ID NO:4) (nucleic acid, listed as Zymoseptoria tritici, complementary strand of dsRNA) GTTCTGATGATGGCAACCGCATTCTTAGGGTATGTATTACCTTATGGTCAAATGTCTTTATGAGGAGCAACAGTTATAACTAACTTATTGAGTGCAATACCTTGAGTTGGACAAGACATAGTTGAATTCGTATGAGGTGGATTTTCTGTTAACAATGCAACATTGAACAGATTCTTTGCTCTACATTTCGTTTTACCGTTTGTGTTAGCTGCATTAGTTTTAATGCATCTAATAGCTTTACACGATACAGCGGGTTCAGGAAATCCT",observed to control Septoria leaf blotch,<3.125,200,66,263,<3.125,159,79,318,53,77,58,76,71,79,80,85
"MgCytB-T5: 172 bp dsRNA of Zymoseptoria CytB region T5, location 173-344 (SEQ ID NO:8) (nucleic acid, listed as Zymoseptoria tritici, complementary strand of dsRNA) TATCTGAAGCATTTAACTCAGTTGAACACATAATGAGAGATGTAAACAATGGATGACTTATACGTTATCTTCACTCTAATACTGCTTCAGCTTTCTTCTTTTTAGTTTACCTGCACGTGGGTAGAGGGTTATACTACGGGTCATACAAAGCCCCTAGAACATTAACATGAAC",,<3.125,>200,71,284,4.605,200,66,265,68,47,68,66,73,72,76,80
"MgCytB-T2: 203 bp dsRNA of Zymoseptoria CytB region 2, location 603-805 (SEQ ID NO:5) (nucleic acid, listed as Zymoseptoria tritici, complementary strand of dsRNA) ACACGATACAGCGGGTTCAGGAAATCCTTTAGGTGTATCAGGTAACTACGATAGATTACCATTCGCCCCTTACTTTATATTCAAAGATTTAATAACAATATTTTTATTCATTATAGTGTTATCAATATTTATTTTCTTTATGCCTAACGTTTTAGGTGACAGCGAGAATTATGTTATGGCTAACCCTATGCAAACTCCACCTG",observed to control Septoria leaf blotch,<3.125,>200,71,285,<3.125,27,82,329,67,77,71,77,71,85,77,90
"MgCytB-T6: 258 bp dsRNA of Zymoseptoria CytB region T6, location 775-1032 (SEQ ID NO:9) (nucleic acid, listed as Zymoseptoria tritici, complementary strand of dsRNA) GTTATGGCTAACCCTATGCAAACTCCACCTGCTATAGTGCCTGAATGATATTTATTACCTTTCTACGCTATACTAAGATCAATACCTAACAAACTATTAGGTGTGATCGCAATGTTTTCTGCTATATTGATTATAATGATAATGCCAATTACCGATTTAGGTAGAAGTAGAGGATTACAGTTTAGACCTTTAAGCAAGATCACATTTTACATATTTGTTGCTAACTTCTTAGTATTAATGCAATTAGGTGCTAATCAC",,<3.125,>200,73,293,<3.125,>200,60,239,72,53,77,63,72,64,72,59
"MgCytB-T4: 219 bp dsRNA of Zymoseptoria CytB region T4, location 1-219 (SEQ ID NO:7) (nucleic acid, listed as Zymoseptoria tritici, complementary strand of dsRNA) ATGAGGATTTGGAAGAGTCACCCTTTATTTAGTCTGGTTAATGGTTATCTTATCGATTCACCACAACCAAGTAATCTAAGCTATCTATGAAATTTCGGTTCATTACTGGGATTTTGTCTTGTAATACAAATCGTTACTGGTGTTACACTTGCTATGCATTATAACCCTAGCGTATCTGAAGCATTTAACTCAGTTGAACACATAATGAGAGATGTAAAC",,<3.125,>200,73,292,<3.125,44,79,316,71,76,74,75,73,81,74,83
"MgCytB-T7: 221 bp dsRNA of Zymoseptoria CytB region T7, location 947-1167 (SEQ ID NO:10) (nucleic acid, listed as Zymoseptoria tritici, complementary strand of dsRNA) GATTACAGTTTAGACCTTTAAGCAAGATCACATTTTACATATTTGTTGCTAACTTCTTAGTATTAATGCAATTAGGTGCTAATCACGTTGAGTCACCATTTATAGAATTTGGGCAAATTAGTACAGTACTGTACTTTTCACATTTCTTAATCATAGTGCCTCTAGTAAGCTTAATCGAGAATACTTTAGTGGATATGCACTTAAACAACACAATAACGTAA",,<3.125,>200,69,275,<3.125,>200,74,297,60,76,69,72,71,73,75,76
